We go through three molecules from doi:10.1101/2022.01.25.477707 (bioRxiv, 2022).

Data set [1] concerns the molecule itself. Kind of data set: SEC-MALS. In general terms: SEC sorts molecules by how far they enter the pores of the column.
For data set [2], the target named is T1, G5_(845-1508)-R1016C-TAP (human, UniProt Q8TEQ6 845-1508, R1016C).
T1 sequence (looked up): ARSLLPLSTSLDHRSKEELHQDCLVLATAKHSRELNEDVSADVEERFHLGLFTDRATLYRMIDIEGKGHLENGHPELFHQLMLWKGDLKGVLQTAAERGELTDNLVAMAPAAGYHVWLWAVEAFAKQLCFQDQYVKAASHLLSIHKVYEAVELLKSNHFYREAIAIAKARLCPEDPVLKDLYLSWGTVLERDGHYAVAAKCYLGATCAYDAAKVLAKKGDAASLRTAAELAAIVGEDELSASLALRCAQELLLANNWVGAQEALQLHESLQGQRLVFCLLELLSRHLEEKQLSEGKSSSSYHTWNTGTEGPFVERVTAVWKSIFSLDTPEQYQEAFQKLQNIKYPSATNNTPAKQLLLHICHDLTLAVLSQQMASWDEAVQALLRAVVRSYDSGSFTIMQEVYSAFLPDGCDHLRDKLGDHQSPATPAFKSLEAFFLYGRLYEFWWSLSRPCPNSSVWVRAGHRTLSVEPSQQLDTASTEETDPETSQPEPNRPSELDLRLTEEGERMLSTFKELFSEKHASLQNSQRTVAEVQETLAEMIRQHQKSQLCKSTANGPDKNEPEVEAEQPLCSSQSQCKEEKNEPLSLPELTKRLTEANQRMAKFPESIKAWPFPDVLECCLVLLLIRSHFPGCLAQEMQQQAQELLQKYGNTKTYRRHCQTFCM
The experiment in a line: co-IP.

The target in data set [3] is T2, G5_(845-1508)-D1019E-TAP (human, UniProt Q8TEQ6 845-1508, D1019E).
T2 sequence (looked up): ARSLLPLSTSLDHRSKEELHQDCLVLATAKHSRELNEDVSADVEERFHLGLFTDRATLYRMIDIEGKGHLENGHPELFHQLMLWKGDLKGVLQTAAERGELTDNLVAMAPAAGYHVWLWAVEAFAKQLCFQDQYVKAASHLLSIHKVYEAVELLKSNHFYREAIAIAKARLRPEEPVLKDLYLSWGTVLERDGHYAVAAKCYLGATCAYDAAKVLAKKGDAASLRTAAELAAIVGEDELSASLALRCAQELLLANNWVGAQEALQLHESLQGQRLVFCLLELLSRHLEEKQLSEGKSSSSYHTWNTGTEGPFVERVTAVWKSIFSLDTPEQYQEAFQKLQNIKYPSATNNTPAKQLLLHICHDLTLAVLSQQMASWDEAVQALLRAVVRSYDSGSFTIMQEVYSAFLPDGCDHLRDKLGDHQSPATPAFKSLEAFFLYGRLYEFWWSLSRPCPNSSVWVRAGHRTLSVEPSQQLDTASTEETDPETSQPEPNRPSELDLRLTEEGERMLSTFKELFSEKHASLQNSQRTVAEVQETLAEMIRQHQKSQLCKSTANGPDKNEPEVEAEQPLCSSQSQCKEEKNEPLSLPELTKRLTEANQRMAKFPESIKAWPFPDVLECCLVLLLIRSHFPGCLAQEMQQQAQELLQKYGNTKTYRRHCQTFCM
Kind of data set: co-IP.

The target of data set [4] is T3, G5_(845-1508)-A951E-TAP (human), Q8TEQ6.
T3 chain: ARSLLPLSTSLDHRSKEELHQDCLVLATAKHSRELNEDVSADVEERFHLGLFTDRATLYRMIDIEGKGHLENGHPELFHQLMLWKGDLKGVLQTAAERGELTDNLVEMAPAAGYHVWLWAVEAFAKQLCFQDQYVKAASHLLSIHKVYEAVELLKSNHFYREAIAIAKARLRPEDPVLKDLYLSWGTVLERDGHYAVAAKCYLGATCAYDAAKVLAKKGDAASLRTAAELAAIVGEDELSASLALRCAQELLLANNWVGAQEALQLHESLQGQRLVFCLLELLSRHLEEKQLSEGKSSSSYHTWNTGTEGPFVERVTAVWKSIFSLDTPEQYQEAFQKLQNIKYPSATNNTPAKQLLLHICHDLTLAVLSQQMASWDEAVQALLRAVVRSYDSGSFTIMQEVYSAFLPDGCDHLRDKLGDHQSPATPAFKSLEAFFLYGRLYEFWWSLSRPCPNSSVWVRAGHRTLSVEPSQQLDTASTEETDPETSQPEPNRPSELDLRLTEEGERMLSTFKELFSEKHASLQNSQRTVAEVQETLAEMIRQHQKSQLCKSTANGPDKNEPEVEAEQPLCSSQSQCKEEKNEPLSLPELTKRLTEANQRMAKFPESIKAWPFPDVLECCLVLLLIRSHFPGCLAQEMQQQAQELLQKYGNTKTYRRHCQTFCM
The experiment in a line: co-IP. To be noted: remark: other sources report otherwise.

B1: Gemin5 TPR-like dimerization domain R1016C (domain or fragment, human, UniProt Q8TEQ6 845-1097, looked up)
chain: ARSLLPLSTSLDHRSKEELHQDCLVLATAKHSRELNEDVSADVEERFHLGLFTDRATLYRMIDIEGKGHLENGHPELFHQLMLWKGDLKGVLQTAAERGELTDNLVAMAPAAGYHVWLWAVEAFAKQLCFQDQYVKAASHLLSIHKVYEAVELLKSNHFYREAIAIAKARLCPEDPVLKDLYLSWGTVLERDGHYAVAAKCYLGATCAYDAAKVLAKKGDAASLRTAAELAAIVGEDELSASLALRCAQELLL
Regarding B1, in data set [1], the “stoichiometry N” value came out at 2.

B2: Gemin5 TPR-like dimerization domain D1019E (domain or fragment, human, UniProt Q8TEQ6 845-1097, looked up)
chain: ARSLLPLSTSLDHRSKEELHQDCLVLATAKHSRELNEDVSADVEERFHLGLFTDRATLYRMIDIEGKGHLENGHPELFHQLMLWKGDLKGVLQTAAERGELTDNLVAMAPAAGYHVWLWAVEAFAKQLCFQDQYVKAASHLLSIHKVYEAVELLKSNHFYREAIAIAKARLRPEEPVLKDLYLSWGTVLERDGHYAVAAKCYLGATCAYDAAKVLAKKGDAASLRTAAELAAIVGEDELSASLALRCAQELLL
Regarding B2, the “stoichiometry N” value in data set [1] was 2.

B3: Gemin5 endogenous protein (natural protein, human (endogenous in HEK293), UniProt Q8TEQ6 1-1508, looked up)
chain: MGQEPRTLPPSPNWYCARCSDAVPGGLFGFAARTSVFLVRVGPGAGESPGTPPFRVIGELVGHTERVSGFTFSHHPGQYNLCATSSDDGTVKIWDVETKTVVTEHALHQHTISTLHWSPRVKDLIVSGDEKGVVFCYWFNRNDSQHLFIEPRTIFCLTCSPHHEDLVAIGYKDGIVVIIDISKKGEVIHRLRGHDDEIHSIAWCPLPGEDCLSINQEETSEEAEITNGNAVAQAPVTKGCYLATGSKDQTIRIWSCSRGRGVMILKLPFLKRRGGGIDPTVKERLWLTLHWPSNQPTQLVSSCFGGELLQWDLTQSWRRKYTLFSASSEGQNHSRIVFNLCPLQTEDDKQLLLSTSMDRDVKCWDIATLECSWTLPSLGGFAYSLAFSSVDIGSLAIGVGDGMIRVWNTLSIKNNYDVKNFWQGVKSKVTALCWHPTKEGCLAFGTDDGKVGLYDTYSNKPPQISSTYHKKTVYTLAWGPPVPPMSLGGEGDRPSLALYSCGGEGIVLQHNPWKLSGEAFDINKLIRDTNSIKYKLPVHTEISWKADGKIMALGNEDGSIEIFQIPNLKLICTIQQHHKLVNTISWHHEHGSQPELSYLMASGSNNAVIYVHNLKTVIESSPESPVTITEPYRTLSGHTAKITSVAWSPHHDGRLVSASYDGTAQVWDALREEPLCNFRGHRGRLLCVAWSPLDPDCIYSGADDFCVHKWLTSMQDHSRPPQGKKSIELEKKRLSQPKAKPKKKKKPTLRTPVKLESIDGNEEESMKENSGPVENGVSDQEGEEQAREPELPCGLAPAVSREPVICTPVSSGFEKSKVTINNKVILLKKEPPKEKPETLIKKRKARSLLPLSTSLDHRSKEELHQDCLVLATAKHSRELNEDVSADVEERFHLGLFTDRATLYRMIDIEGKGHLENGHPELFHQLMLWKGDLKGVLQTAAERGELTDNLVAMAPAAGYHVWLWAVEAFAKQLCFQDQYVKAASHLLSIHKVYEAVELLKSNHFYREAIAIAKARLRPEDPVLKDLYLSWGTVLERDGHYAVAAKCYLGATCAYDAAKVLAKKGDAASLRTAAELAAIVGEDELSASLALRCAQELLLANNWVGAQEALQLHESLQGQRLVFCLLELLSRHLEEKQLSEGKSSSSYHTWNTGTEGPFVERVTAVWKSIFSLDTPEQYQEAFQKLQNIKYPSATNNTPAKQLLLHICHDLTLAVLSQQMASWDEAVQALLRAVVRSYDSGSFTIMQEVYSAFLPDGCDHLRDKLGDHQSPATPAFKSLEAFFLYGRLYEFWWSLSRPCPNSSVWVRAGHRTLSVEPSQQLDTASTEETDPETSQPEPNRPSELDLRLTEEGERMLSTFKELFSEKHASLQNSQRTVAEVQETLAEMIRQHQKSQLCKSTANGPDKNEPEVEAEQPLCSSQSQCKEEKNEPLSLPELTKRLTEANQRMAKFPESIKAWPFPDVLECCLVLLLIRSHFPGCLAQEMQQQAQELLQKYGNTKTYRRHCQTFCM
As for B3, the “intensity of co-IP relative to the WT protein” value in data set [2] is 58 % relative to the WT protein; in data set [3] it was 62 % relative to the WT protein. This molecule displayed a fold by which the recruitment of Gemin5 by WT exceeds that by this mutant in data set [4] of 10 fold.

What is called stoichiometry N is a count of units in the complex or per binding partner.
